To fix the notation:
T1: His-tagged NPAS3 (neuronal PAS domain protein 3) (UniProt Q9QZQ0 56-455)
T1 sequence (looked up): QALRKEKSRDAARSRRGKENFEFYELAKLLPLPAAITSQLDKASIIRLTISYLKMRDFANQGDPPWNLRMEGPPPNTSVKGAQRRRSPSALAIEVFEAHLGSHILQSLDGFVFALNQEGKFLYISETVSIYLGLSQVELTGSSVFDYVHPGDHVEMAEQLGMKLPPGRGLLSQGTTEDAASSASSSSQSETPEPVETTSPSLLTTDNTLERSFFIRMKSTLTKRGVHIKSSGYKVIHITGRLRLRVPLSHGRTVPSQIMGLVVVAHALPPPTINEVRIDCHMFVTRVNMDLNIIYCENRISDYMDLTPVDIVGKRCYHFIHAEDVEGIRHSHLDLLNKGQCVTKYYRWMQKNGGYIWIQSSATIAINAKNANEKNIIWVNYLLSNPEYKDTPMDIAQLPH

B1: chimeric ARNT-GFP protein (ARNT residues 82–470 fused to Aequorea GFP) (domain or fragment)
chain: not shown
B2: mouse HIF-2α bHLH-PAS-A-PAS-B region (3–361), His-tagged (domain or fragment)
chain: not shown
B3: His-tagged HIF-1α (domain or fragment)
chain: not shown
B4: HIF-2α G323E (3–361), His-tagged (domain or fragment)
chain: not shown
B5: HIF-2α mutant M252A (3–361), His-tagged (domain or fragment)
chain: not shown

Common to all, as to experiment: FRET or BRET
On the technique in general: BRET reads energy transfer from a luciferase to a nearby fluorophore.

For assay [1], the target named is T1, His-tagged NPAS3 (neuronal PAS domain …).
Assay [2] deals with ARNT F446L-GFP (ARNT residues 82–470 fused to Aequorea GFP) (mouse, UniProt P53762 82-470, F446L).
Assay [3] addresses B1.

ARNT F446L-GFP (ARNT residues 82–470 fused to Aequorea GFP), sequence (P53762 82-470 F446L): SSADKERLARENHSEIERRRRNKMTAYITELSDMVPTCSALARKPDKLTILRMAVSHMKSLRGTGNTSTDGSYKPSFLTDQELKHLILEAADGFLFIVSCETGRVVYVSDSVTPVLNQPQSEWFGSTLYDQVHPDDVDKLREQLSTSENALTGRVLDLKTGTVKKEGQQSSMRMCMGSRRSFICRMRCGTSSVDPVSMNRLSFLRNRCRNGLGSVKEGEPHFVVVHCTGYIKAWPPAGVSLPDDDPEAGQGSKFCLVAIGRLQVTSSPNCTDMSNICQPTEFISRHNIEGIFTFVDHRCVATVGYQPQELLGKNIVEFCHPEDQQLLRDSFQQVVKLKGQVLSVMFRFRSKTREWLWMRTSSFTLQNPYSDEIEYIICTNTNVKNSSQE

The molecule B1 yielded a Kd in assay [1] of 8.6 nM.
Regarding B2, the Kd was around 0.8 nM in assay [2] and 29.1 nM in assay [3].
B3 came in with a Kd in assay [3] of 11.7 nM.
On to B4, for which, in assay [3], the Kd is around 10.5 nM.
The same measure, in the same setting: to B5 belongs 1.4 nM.

As usually defined, the Kd is a measure of binding affinity in units of concentration. The low end stands for tighter binding, the high end for weaker binding.

Source of the values: article PMC6447045 (Nature chemical biology, 2019).
